Laboratory results from publication PMC5576923 (eLife, 2017).
Values belong to the binder of their own block, whether it stands above or below them.

How the values were obtained:
[1] = biological target: T1, β-Arrestin1 (human (endogenous in Caco-2 and HCT116), UniProt P49407 1-418); experiment: proximity ligation; Duolink II red kit on fixed, permeabilised cells; PTEN-/- HCT116 cells transfected 24 hr with GFP-tagged EV or PTEN constructs, HCT116 cells as positive control; signal as AI units, n = 35 cells per condition in triplicate; settings: partners not purified
T1 construct: β-Arrestin1, endogenous in human colorectal cell lines Caco-2 and HCT116 and their PTEN-deficient subclones; Precipitated with anti-β-Arrestin1 (bait of the co-IPs); detected with mouse anti-β-Arrestin1 in the PLA; also called Beta-Arrestin1; source: endogenous, Caco-2, Caco-2 ShPTEN, HCT116 and PTEN-/- HCT116 cells (lysate, membrane fraction, or fixed cells)

[2] = biological target: T1, β-Arrestin1; experiment: cell-based or functional assay

T1 sequence (P49407 whole entry): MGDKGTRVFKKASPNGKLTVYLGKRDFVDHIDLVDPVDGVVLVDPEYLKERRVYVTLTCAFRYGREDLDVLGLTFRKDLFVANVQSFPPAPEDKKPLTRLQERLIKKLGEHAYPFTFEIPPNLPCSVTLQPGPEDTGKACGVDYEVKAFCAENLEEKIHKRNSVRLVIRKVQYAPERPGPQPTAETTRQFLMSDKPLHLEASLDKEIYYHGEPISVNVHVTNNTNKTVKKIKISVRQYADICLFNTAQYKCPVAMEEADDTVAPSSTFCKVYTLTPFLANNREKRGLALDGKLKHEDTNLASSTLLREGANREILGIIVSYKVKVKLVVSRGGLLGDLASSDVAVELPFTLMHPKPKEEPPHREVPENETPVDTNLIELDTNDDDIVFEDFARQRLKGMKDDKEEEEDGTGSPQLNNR

B1: GFP-labeled PTEN C124S-T383A (natural protein, UniProt P60484 1-403, looked up)
chain: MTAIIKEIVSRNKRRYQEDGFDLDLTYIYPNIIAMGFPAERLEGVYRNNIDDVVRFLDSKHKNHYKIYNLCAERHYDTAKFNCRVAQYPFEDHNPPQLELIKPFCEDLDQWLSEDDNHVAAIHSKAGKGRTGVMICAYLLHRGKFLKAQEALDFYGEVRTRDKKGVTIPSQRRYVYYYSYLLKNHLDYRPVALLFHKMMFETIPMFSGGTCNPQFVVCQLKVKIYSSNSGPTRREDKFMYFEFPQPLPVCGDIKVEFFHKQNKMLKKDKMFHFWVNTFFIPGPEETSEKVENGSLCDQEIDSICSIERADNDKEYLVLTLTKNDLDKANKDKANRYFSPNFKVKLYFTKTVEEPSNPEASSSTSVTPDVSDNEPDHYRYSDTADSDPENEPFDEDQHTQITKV
notes: also called CS-T383A; source: PTEN-/- HCT116 cells, transfected, in fixed cells
PLA interaction AI [1]: 69.8 AI units

PLA interaction AI [1]: 101 AI units
B2: PTEN (phosphatase and tensin homolog) (natural protein)
chain: not shown
notes: source: endogenous, HCT116 cells (fixed cells)

PLA interaction AI [1]: 123 AI units
Cdc42-GTP (ADU, fold) in HCT116 cells after pep24 vs control peptide [2]: 0.44 fold change
Cdc42-GTP (fold change, ADU) in Caco-2 cells after 10 μM pep24 vs control peptide [2]: 0.48 fold change
B3: ARHGAP21 (natural protein, human (endogenous in Caco-2 and HCT116), UniProt Q5T5U3 1-1958, looked up)
chain: MMATRRTGLSEGDGDKLKACEVSKNKDGKEQSETVSLSEDETFSWPGPKTVTLKRTSQGFGFTLRHFIVYPPESAIQFSYKDEENGNRGGKQRNRLEPMDTIFVKQVKEGGPAFEAGLCTGDRIIKVNGESVIGKTYSQVIALIQNSDTTLELSVMPKDEDILQVLQFTKDVTALAYSQDAYLKGNEAYSGNARNIPEPPPICYPWLPSAPSAMAQPVEISPPDSSLSKQQTSTPVLTQPGRAYRMEIQVPPSPTDVAKSNTAVCVCNESVRTVIVPSEKVVDLLSNRNNHTGPSHRTEEVRYGVSEQTSLKTVSRTTSPPLSIPTTHLIHQPAGSRSLEPSGILLKSGNYSGHSDGISSSRSQAVEAPSVSVNHYSPNSHQHIDWKNYKTYKEYIDNRRLHIGCRTIQERLDSLRAASQSTTDYNQVVPNRTTLQGRRRSTSHDRVPQSVQIRQRSVSQERLEDSVLMKYCPRSASQGALTSPSVSFSNHRTRSWDYIEGQDETLENVNSGTPIPDSNGEKKQTYKWSGFTEQDDRRGICERPRQQEIHKSFRGSNFTVAPSVVNSDNRRMSGRGVGSVSQFKKIPPDLKTLQSNRNFQTTCGMSLPRGISQDRSPLVKVRSNSLKAPSTHVTKPSFSQKSFVSIKDQRPVNHLHQNSLLNQQTWVRTDSAPDQQVETGKSPSLSGASAKPAPQSSENAGTSDLELPVSQRNQDLSLQEAETEQSDTLDNKEAVILREKPPSGRQTPQPLRHQSYILAVNDQETGSDTTCWLPNDARREVHIKRMEERKASSTSPPGDSLASIPFIDEPTSPSIDHDIAHIPASAVISASTSQVPSIATVPPCLTTSAPLIRRQLSHDHESVGPPSLDAQPNSKTERSKSYDEGLDDYREDAKLSFKHVSSLKGIKIADSQKSSEDSGSRKDSSSEVFSDAAKEGWLHFRPLVTDKGKRVGGSIRPWKQMYVVLRGHSLYLYKDKREQTTPSEEEQPISVNACLIDISYSETKRKNVFRLTTSDCECLFQAEDRDDMLAWIKTIQESSNLNEEDTGVTNRDLISRRIKEYNNLMSKAEQLPKTPRQSLSIRQTLLGAKSEPKTQSPHSPKEESERKLLSKDDTSPPKDKGTWRKGIPSIMRKTFEKKPTATGTFGVRLDDCPPAHTNRYIPLIVDICCKLVEERGLEYTGIYRVPGNNAAISSMQEELNKGMADIDIQDDKWRDLNVISSLLKSFFRKLPEPLFTNDKYADFIEANRKEDPLDRLKTLKRLIHDLPEHHYETLKFLSAHLKTVAENSEKNKMEPRNLAIVFGPTLVRTSEDNMTHMVTHMPDQYKIVETLIQHHDWFFTEEGAEEPLTTVQEESTVDSQPVPNIDHLLTNIGRTGVSPGDVSDSATSDSTKSKGSWGSGKDQYSRELLVSSIFAAASRKRKKPKEKAQPSSSEDELDNVFFKKENVEQCHNDTKEESKKESETLGRKQKIIIAKENSTRKDPSTTKDEKISLGKESTPSEEPSPPHNSKHNKSPTLSCRFAILKESPRSLLAQKSSHLEETGSDSGTLLSTSSQASLARFSMKKSTSPETKHSEFLANVSTITSDYSTTSSATYLTSLDSSRLSPEVQSVAESKGDEADDERSELISEGRPVETDSESEFPVFPTALTSERLFRGKLQEVTKSSRRNSEGSELSCTEGSLTSSLDSRRQLFSSHKLIECDTLSRKKSARFKSDSGSLGDAKNEKEAPSLTKVFDVMKKGKSTGSLLTPTRGESEKQEPTWKTKIADRLKLRPRAPADDMFGVGNHKVNAETAKRKSIRRRHTLGGHRDATEISVLNFWKVHEQSGERESELSAVNRLKPKCSAQDLSISDWLARERLRTSTSDLSRGEIGDPQTENPSTREIATTDTPLSLHCNTGSSSSTLASTNRPLLSIPPQSPDQINGESFQNVSKNASSAANAQPHKLSETPGSKAEFHPCL
notes: also called ARHGA21; source: endogenous, Caco-2, Caco-2 ShPTEN, HCT116 and PTEN-/- HCT116 cells (lysate, membrane fraction, or fixed cells)
